T1: HD21 (huntingtin exon 1 protein with 21 polyQ repeats after cleavage of the GST tag; aggregation reaction) (human), P42858
T1 chain: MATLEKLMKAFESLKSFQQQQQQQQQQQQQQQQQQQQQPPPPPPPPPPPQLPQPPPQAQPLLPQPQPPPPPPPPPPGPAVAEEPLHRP

B1: NI-302.12H2 (protein)
chain 1: EVQLVQSGGGLVQPGGSLRLSCEASGFTFSNYAMGWVRQAPGKGLEWVSVISGTGGSTYYADSVKGRFTISRDNSMNTLYLQMNSPRADDTAVYYCAKDLRKISGPLYYYGMDVWGQGTTVTVSS
chain 2: EIVLTQSPGTLSLSPGERATLSCRASQSVSSGYLAWYQQKPGQAPRLLIYGASTRATGIPDRFSGSGSGTDFTLTISRLEPEDFAVYYCQHYGASSYTFGQGTKLEIK
B2: NI-302.4A6 (protein)
chain 1: EVQLVESGGGLVQPGGSLRLSCAASGFTFSAYAMSWVRQAPGKGLEWVSTISGSGGSTYYADSVKGRFSISRDNSKNTLYLQMNSLRAEDTAVYFCAKVTTELYGANSYYYYMDVWGKGTTVTVSS
chain 2: EIVLTQSPGTLSLSPGERATLSCRASQSVVSRYLAWYQQKPGQAPRLLIYGASSRATGIPDRFSGSGSGTDFTLTISRLEPEDFAMYYCQLYGNSQTFGQGTKVEIK
B3: NI-302.8M1 (protein)
chain 1: EVQLVQSGAEVKKPGASVKVSCKASGYTFTIYYMHWVRQAPGQGLEWMGGISPSGAHTMYAQNFQGRVTVTRDTSTSTVYMELSSLRSEDTAVYYCARGSTVTNYRPFDYWGQGTLVTVSS
chain 2: DIQMTQSPSSLSASVGDRVTITCRASQDISNYLAWYQQKPGKVPKLLIFAASTLQSGVPSRFGGSGSGTDFTLTISSLQPEDVATYYCQNYNSGPPPFGPGTKVDIK
B4: NI-302.15F9 (antibody, human IgG1, V domains shown)
VH: EVQLVESGGGLVTPGGSLRLSCEASGFLFKNSSMNWVRQTPGKGLEWVSSIDTSATNYKYYADSVKGRFTISRDDATNSLYLQMNSLRADDTATYYCARGYYTPRDFDYWGQGTLVTVSS
VL: DVVMTQSPQTLSVSLGQAASISCRSSQSLLYRDNNTYLNWFHQRPGQSPRRLIYRASDRDSGVPDRFSGGGSGTDFTLKISGVEAEDVGTYYCMQGTHWPRTFGQGTKVEIK

Legend:
[1] = target: T1, HD21 (huntingtin exon 1 protein with 21 …); test: ELISA; details: chains VH:VL; remark: other sources report otherwise
[2] = target: all four species (aggregated HD49, aggregated HD21, soluble GST-HD49 and GST-HD21); test: direct ELISA, antigen coated at 5 ug/ml

Row | Binder | EC50 [1] [nM] | EC50 [2] [nM]
1 | B1 | 0.05 | 
2 | B2 | 3 | 
3 | B3 | 0.002 | 
4 | B4 |  | 5 to 35

From patent US20170166631A1
